Source: patent publication US9249224B2 (RINAT NEUROSCIENCE CORP., priority 2011, dated 2016)

Key:
IGFBP-3 = test: Serum IGFBP-3 levels in cynomolgus monkeys after a single antibody dose; format: in vivo, cynomolgus monkey; details: for serum IGFBP-3 levels (% change from baseline) / serum IGFBP-3 decrease below baseline: cynomolgus monkeys
Procedure: (§1) To determine if GHR antagonist monoclonal antibodies can affect IGF-1, IGFBP-3, and ALS levels in vivo by inhibiting the function of GHR, the effect of humanized anti-human GHR antibody SS1 was tested in cynomolgus monkeys. A dose-response study was conducted to test for changes in IGF-1, IGFBP-3, and ALS levels following a single dose of SS1. Eight naïve female cynomolgus monkeys were injected intravenously with a single dose of SS1 or negative control human IgG2, in 1×PBS 0.01% Tween™ 20. Two monkeys were dosed with 30 mg/kg SS1, two were dosed with 10 mg/kg SS1, two were dosed with 3 mg/kg SS1, and two were dosed with 30 mg/kg negative control human IgG2Δa on Day 1. […] Serum was also taken from the 30 mg/kg SS1 and negative control treated animals at 864 h post-dose.
Serum samples were analyzed for changes in IGFBP-3 levels compared to baseline using an R&D Systems™ Quantikine™ human IGFBP-3 immunoassay kit (cat. #DGB300).

ALS = test: Serum ALS levels in cynomolgus monkeys after a single antibody dose; format: in vivo, cynomolgus monkey; details: Table 12, cynomolgus monkeys, SS1 3 mg/kg IV single dose
Procedure: as §1
Serum samples were analyzed for changes in ALS levels compared to baseline using a BioVendor™ Human ALS ELISA kit (cat. #RMEE35R).
Six naïve female cynomolgus monkeys were injected either intravenously or subcutaneously with a single dose of […] or negative control human IgG2Δa in 1×PBS 0.01% Tween™ 20. Two monkeys were dosed with 3 mg/kg SS1 intravenously, two were dosed with 3 mg/kg SS1 subcutaneously, and two were dosed with 3 mg/kg negative control human IgG2Δa subcutaneously on Day 1. Serum samples were taken from all animals at the following timepoints: pre-dose, 24 h, 72 h, 120 h, 168 h, 216 h, 264 h, 312 h, 360 h, 408 h, 456 h and 504 h.

B1: SS1: humanized GHR antagonist antibody; VL SEQ ID NO: 7, VH SEQ ID NO: 8; hIgG2Δa heavy chain SEQ ID NO: 134, light chain SEQ ID NO: 135 (antibody)
heavy: EVQLVESGGGLVKPGGSLRLSCAASGFTFSDAWMDWVRQAPGKGLEWVAEIRSKANYHATYYAESVKGRFTISRDDSKNTLYLQMNSLKTEDTAVYYCTLIRDYWGQGTLVTVSSASTKGPSVFPLAPCSRSTSESTAALGCLVKDYFPEPVTVSWNSGALTSGVHTFPAVLQSSGLYSLSSVVTVPSSNFGTQTYTCNVDHKPSNTKVDKTVERKCCVECPPCPAPPVAGPSVFLFPPKPKDTLMISRTPEVTCVVVDVSHEDPEVQFNWYVDGVEVHNAKTKPREEQFNSTFRVVSVLTVVHQDWLNGKEYKCKVSNKGLPSSIEKTISKTKGQPREPQVYTLPPSREEMTKNQVSLTCLVKGFYPSDIAVEWESNGQPENNYKTTPPMLDSDGSFFLYSKLTVDKSRWQQGNVFSCSVMHEALHNHYTQKSLSLSPGK
light: EIVLTQSPGTLSLSPGERATLSCTATSSVSSSYLNWYQQKPGQAPRLLIYSTSNLASGIPDRFSGSGSGTDFTLTISRLEPEDFAVYYCHQYHRSTPTFGGGTKVEIKRTVAAPSVFIFPPSDEQLKSGTASVVCLLNNFYPREAKVQWKVDNALQSGNSQESVTEQDSKDSTYSLSSTLTLSKADYEKHKVYACEVTHQGLSSPVTKSFNRGEC
modifications: Humanized and/or affinity matured antibody sequence
IGFBP-3; SS1 3 mg/kg IV single dose, 24 h post-injection
  serum IGFBP-3 levels (% change from baseline): −18.75 +/− 1.25%
IGFBP-3; SS1 3 mg/kg IV single dose, 48 h post-injection
  serum IGFBP-3 levels (% change from baseline): −22.8 +/− 3.8%
IGFBP-3; SS1 3 mg/kg IV single dose, 72 h post-injection
  serum IGFBP-3 levels (% change from baseline): −36.45 +/− 6.65%
IGFBP-3; SS1 3 mg/kg IV single dose, 96 h post-injection
  serum IGFBP-3 levels (% change from baseline): −37.35 +/− 5.05%
IGFBP-3; SS1 3 mg/kg IV single dose, 120 h post-injection
  serum IGFBP-3 levels (% change from baseline): −38.25 +/− 4.85%
IGFBP-3; SS1 3 mg/kg IV single dose, 144 h post-injection
  serum IGFBP-3 levels (% change from baseline): −46.8 +/− 0.6%
IGFBP-3; SS1 3 mg/kg IV single dose, 192 h post-injection
  serum IGFBP-3 levels (% change from baseline): −32.55 +/− 1.35%
IGFBP-3; SS1 3 mg/kg IV single dose, 312 h post-injection
  serum IGFBP-3 levels (% change from baseline): 22.4 +/− 1.9%
IGFBP-3; SS1 3 mg/kg IV single dose, 336 h post-injection
  serum IGFBP-3 levels (% change from baseline): 28.15 +/− 12.25%
IGFBP-3; SS1 3 mg/kg IV single dose, by 72 hours
  serum IGFBP-3 decrease below baseline: about 36%
IGFBP-3; SS1 3 mg/kg IV single dose, by 144 hours
  serum IGFBP-3 decrease below baseline: about 47%
IGFBP-3; SS1 10 mg/kg IV single dose, 24 h post-injection
  serum IGFBP-3 levels (% change from baseline): −23.95 +/− 3.35%
IGFBP-3; SS1 10 mg/kg IV single dose, 48 h post-injection
  serum IGFBP-3 levels (% change from baseline): −28.4 +/− 2.9%
IGFBP-3; SS1 10 mg/kg IV single dose, 72 h post-injection
  serum IGFBP-3 levels (% change from baseline): −37.9 +/− 2.4%
IGFBP-3; SS1 10 mg/kg IV single dose, 96 h post-injection
  serum IGFBP-3 levels (% change from baseline): −40.95 +/− 0.35%
IGFBP-3; SS1 10 mg/kg IV single dose, 120 h post-injection
  serum IGFBP-3 levels (% change from baseline): −46.4 +/− 1.1%
IGFBP-3; SS1 10 mg/kg IV single dose, 144 h post-injection
  serum IGFBP-3 levels (% change from baseline): −51.05 +/− 8.85%
IGFBP-3; SS1 10 mg/kg IV single dose, 192 h post-injection
  serum IGFBP-3 levels (% change from baseline): −45.95 +/− 6.35%
IGFBP-3; SS1 10 mg/kg IV single dose, 312 h post-injection
  serum IGFBP-3 levels (% change from baseline): −38.7 +/− 9.6%
IGFBP-3; SS1 10 mg/kg IV single dose, 336 h post-injection
  serum IGFBP-3 levels (% change from baseline): −42.25 +/− 1.85%
IGFBP-3; SS1 10 mg/kg IV single dose, by 72 hours
  serum IGFBP-3 decrease below baseline: ~38%
IGFBP-3; SS1 10 mg/kg IV single dose, by 144 hours
  serum IGFBP-3 decrease below baseline: ~51%
IGFBP-3; SS1 30 mg/kg IV single dose, 24 h post-injection
  serum IGFBP-3 levels (% change from baseline): −10.6 +/− 4.6%
IGFBP-3; SS1 30 mg/kg IV single dose, 48 h post-injection
  serum IGFBP-3 levels (% change from baseline): −15.75 +/− 9.35%
IGFBP-3; SS1 30 mg/kg IV single dose, 72 h post-injection
  serum IGFBP-3 levels (% change from baseline): −22.95 +/− 16.15%
IGFBP-3; SS1 30 mg/kg IV single dose, 96 h post-injection
  serum IGFBP-3 levels (% change from baseline): −29.4 +/− 13.9%
IGFBP-3; SS1 30 mg/kg IV single dose, 120 h post-injection
  serum IGFBP-3 levels (% change from baseline): −38.15 +/− 9.45%
IGFBP-3; SS1 30 mg/kg IV single dose, 144 h post-injection
  serum IGFBP-3 levels (% change from baseline): −45.7 +/− 11.9%
IGFBP-3; SS1 30 mg/kg IV single dose, 192 h post-injection
  serum IGFBP-3 levels (% change from baseline): −31.05 +/− 16.05%
IGFBP-3; SS1 30 mg/kg IV single dose, 312 h post-injection
  serum IGFBP-3 levels (% change from baseline): −40.65 +/− 5.05%
IGFBP-3; SS1 30 mg/kg IV single dose, 336 h post-injection
  serum IGFBP-3 levels (% change from baseline): −39.45 +/− 0.85%
IGFBP-3; SS1 30 mg/kg IV single dose, by 72 hours
  serum IGFBP-3 decrease below baseline: ~23%
IGFBP-3; SS1 30 mg/kg IV single dose, by 144 hours
  serum IGFBP-3 decrease below baseline: ~46%
IGFBP-3; single IV dose 3, 10 or 30 mg/kg
  effect on serum IGFBP-3 levels in cynomolgus monkey: dose dependently reduces serum IGFBP-3 levels
ALS; 24 h post-injection
  serum ALS levels (% change from baseline): −23.0 +/− 4.0%
ALS; 48 h post-injection
  serum ALS levels (% change from baseline): −41.7 +/− 3.6%
ALS; 72 h post-injection
  serum ALS levels (% change from baseline): −45.4 +/− 0.9%
ALS; 96 h post-injection
  serum ALS levels (% change from baseline): −50.7 +/− 2.3%
ALS; 120 h post-injection
  serum ALS levels (% change from baseline): −48.0 +/− 0.4%
ALS; 144 h post-injection
  serum ALS levels (% change from baseline): −45.5 +/− 8.4%
ALS; 192 h post-injection
  serum ALS levels (% change from baseline): −50.7 +/− 8.8%
